In US20130041017A1, “SIRNA-BASED THERAPY OF FIBRODYPLASIA OSSIFICANS PROGRESSIVA (FOP)” (The Trustees of the University of Pennsylvania, published 2013):

Biological target: T1, ACVR1 Arg206His mutant (R206H; c.617G>A), mutated Activin A type I receptor protein (human)
T1 chain: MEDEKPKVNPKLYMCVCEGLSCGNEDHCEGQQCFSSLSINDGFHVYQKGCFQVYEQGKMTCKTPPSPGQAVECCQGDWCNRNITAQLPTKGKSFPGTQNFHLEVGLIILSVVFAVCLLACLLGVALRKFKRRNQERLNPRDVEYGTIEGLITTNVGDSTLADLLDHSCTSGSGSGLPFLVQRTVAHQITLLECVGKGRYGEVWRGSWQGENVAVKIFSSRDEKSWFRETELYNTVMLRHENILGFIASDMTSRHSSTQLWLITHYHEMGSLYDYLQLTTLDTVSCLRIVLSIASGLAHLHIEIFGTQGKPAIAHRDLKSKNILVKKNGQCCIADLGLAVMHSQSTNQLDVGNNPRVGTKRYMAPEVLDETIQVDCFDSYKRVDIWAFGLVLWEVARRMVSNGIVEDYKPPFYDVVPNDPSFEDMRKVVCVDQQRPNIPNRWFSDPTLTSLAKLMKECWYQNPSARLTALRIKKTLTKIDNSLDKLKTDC
Assay: cell-based or functional assay

B1: Human recombinant BMP4 (ligand)
chain: SPKHHSQRARKKNKNCRRHSLYVDFSDVGWNDWIVAPPGYQAFYCHGDCPFPLADHLNSTNHAIVQTLVNSVNSSIPKACCVPTELSAISMLYLDEYDKVVLKNYQEMVVEGCGCR
- phosphorylated Smad1/5/8 (pSmad1/5/8) by immunoblotting: ~2 fold
